Measured values taken from PMC3423576 (Journal of molecular biology, 2012).

Target: the molecule itself
Experiment: crystal structure

B1: CusB periplasmic membrane fusion protein (natural protein, E. coli, UniProt P77239 29-407, looked up)
chain: EPPAEKTSTAERKILFWYDPMYPNTRFDKPGKSPFMDMDLVPKYADEESSASGVRIDPTQTQNLGVKTATVTRGPLTFAQSFPANVSYNEYQYAIVQARAAGFIDKVYPLTVGDKVQKGTPLLDLTIPDWVEAQSEYLLLRETGGTATQTEGILERLRLAGMPEADIRRLIATQKIQTRFTLKAPIDGVITAFDLRAGMNIAKDNVVAKIQGMDPVWVTAAIPESIAWLVKDASQFTLTVPARPDKTLTIRKWTLLPGVDAATRTLQLRLEVDNADEALKPGMNAWLQLNTASEPMLLIPSQALIDTGSEQRVITVDADGRFVPKRVAVFQASQGVTALRSGLAEGEKVVSSGLFLIDSEANISGALERMRSESATHAH
- stoichiometry N: 6
